In patent US20050032039A1:

Molecular target: HLA class I
Test: cell-based or functional assay

W6/32, the class I-specific antibody
reduction in HIV-1 envelope-specific CTL activity (PBMCs from LB as effector cells, E:T 25:1, 1:4 dilution of W6/32 hybridoma supernatant): 73% | specific lysis value with W6/32 (PBMCs from LB, E:T 25:1): 6.2% | specific lysis value without W6/32 (PBMCs from LB, E:T 25:1): 23.2%
